The record followed here is article PMC3603003 (Molecular Plant, 2012).

For series [1], the target named is rabbit muscle actin, polymerized (F-actin) (rabbit, UniProt P68135 1-377). Nature of the series: co-sedimentation.
The series “SEC” concerns the molecule itself. In words: SEC.

B1: NtWLIM2–His (recombinant tobacco LIM protein WLIM2, 6xHis-tagged) (natural protein, Nicotiana tabacum (tobacco), UniProt P93356 1-189, looked up)
chain: MSFIGTQQKCKACEKTVYPVELLSADGVNYHKSCFKCSHCKGTLKLSNFSSMEGVLYCKPHFEQLFKESGNFNKNFQSPAKSAEKLTPELTRSPSKAAGMFSGTQEKCATCGKTAYPLEKVTVENQSYHKTCFKCSHGGCSLSPSNYAALNGILYCKPHFSQLFKEKGSYNHLIKSASMKRPAATVPDS
As to B1, in series [1], the Kd stood at 1830 nM. In “SEC”, the “stoichiometry N” value is 2.
